T1: Pfu DNA polymerase (Pyrococcus furiosus, UniProt P61875)
T1 construct: Native Pfu DNA polymerase was used at initial concentration of 1.065 mg/ml
T1 sequence (P61875 1-775): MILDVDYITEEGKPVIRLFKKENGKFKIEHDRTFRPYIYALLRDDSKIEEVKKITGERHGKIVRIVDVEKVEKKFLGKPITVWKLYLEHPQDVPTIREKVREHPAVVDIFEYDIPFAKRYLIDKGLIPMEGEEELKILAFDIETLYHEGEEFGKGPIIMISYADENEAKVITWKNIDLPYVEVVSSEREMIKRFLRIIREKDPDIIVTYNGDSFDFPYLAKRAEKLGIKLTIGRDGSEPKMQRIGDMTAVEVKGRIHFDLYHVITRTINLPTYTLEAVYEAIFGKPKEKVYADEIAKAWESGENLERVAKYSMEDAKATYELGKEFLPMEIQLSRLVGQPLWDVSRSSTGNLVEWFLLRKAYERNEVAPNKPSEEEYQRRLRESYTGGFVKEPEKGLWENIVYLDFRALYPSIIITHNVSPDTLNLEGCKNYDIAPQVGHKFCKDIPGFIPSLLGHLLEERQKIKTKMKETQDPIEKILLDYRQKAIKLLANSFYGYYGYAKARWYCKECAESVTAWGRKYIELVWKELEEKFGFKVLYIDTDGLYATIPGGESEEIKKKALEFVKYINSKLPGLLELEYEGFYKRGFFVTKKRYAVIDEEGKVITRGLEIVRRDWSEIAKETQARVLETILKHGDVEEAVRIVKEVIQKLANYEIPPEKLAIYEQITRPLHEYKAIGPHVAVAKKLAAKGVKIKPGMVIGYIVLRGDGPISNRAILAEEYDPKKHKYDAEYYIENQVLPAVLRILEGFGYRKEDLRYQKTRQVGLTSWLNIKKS


Legend:
Taq DNA polymerase = Taq DNA polymerase (Thermus aquaticus, UniProt P19821); test: Polymerase activity assay: incorporation of [3H]-dTTP into the polynucleotide adsorbed on DE-81 in 30 min at 70° C.; assay type: biochemical; details: aqueous solution
Taq DNA polymerase, sequence (P19821 whole entry): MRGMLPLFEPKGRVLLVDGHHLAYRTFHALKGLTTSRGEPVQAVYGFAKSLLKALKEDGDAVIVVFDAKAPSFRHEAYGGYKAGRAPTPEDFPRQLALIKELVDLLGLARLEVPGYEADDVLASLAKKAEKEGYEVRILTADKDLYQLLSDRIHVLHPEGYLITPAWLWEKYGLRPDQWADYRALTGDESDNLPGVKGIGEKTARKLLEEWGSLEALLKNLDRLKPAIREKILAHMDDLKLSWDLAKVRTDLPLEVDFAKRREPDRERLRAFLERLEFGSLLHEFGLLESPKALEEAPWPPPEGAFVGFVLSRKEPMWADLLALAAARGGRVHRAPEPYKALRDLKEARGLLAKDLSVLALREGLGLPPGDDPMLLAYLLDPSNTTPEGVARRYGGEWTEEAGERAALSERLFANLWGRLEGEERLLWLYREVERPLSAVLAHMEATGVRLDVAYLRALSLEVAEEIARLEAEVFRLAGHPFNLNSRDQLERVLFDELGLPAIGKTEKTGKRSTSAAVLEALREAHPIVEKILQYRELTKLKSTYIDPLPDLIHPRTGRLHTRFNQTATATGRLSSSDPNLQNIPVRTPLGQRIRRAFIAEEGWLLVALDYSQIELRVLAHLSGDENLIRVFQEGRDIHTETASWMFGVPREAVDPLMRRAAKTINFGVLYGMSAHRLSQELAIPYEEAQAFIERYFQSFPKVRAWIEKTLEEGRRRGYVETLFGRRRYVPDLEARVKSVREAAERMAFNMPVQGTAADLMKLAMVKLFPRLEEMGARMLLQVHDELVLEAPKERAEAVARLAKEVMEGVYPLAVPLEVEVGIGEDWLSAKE
Method: The measure of the enzyme activity was incorporation of [^3H]-dTTP into polynucleotide fraction. One unit of polymerase activity is defined as the enzyme amount which incorporates 10 nmoles of deoxyribonucleotides into the polynucleotide adsorbed on DE-81 in 30 min at 70° C.
For activity assays, Taq DNA polymerase was diluted up to 4 u/ml with the dilution buffer of the following composition: 20 mM Tris-HCl (pH 8.8 at 25° C.), 1 mM EDTA, 1 mM DTT, and BSA (0.1 mg/ml). Reactions were carried out at 70° C. for 30 min with 5 μl of the diluted enzyme in 50 μl of the reaction buffer of the following composition: 67 mM Tris-HCl (pH 8.8 at 25° C.), 50 mM NaCl, 6.7 mM MgCl2, 1 mM DTT, and BSA (0.1 mg/ml). The reaction buffer was supplemented with 0.2 mM dNTP, [3H]-dTTP (0.4 MBq/ml) and 0.75 mM activated DNA from calf thymus.
Activity of the modified enzymes was measured either with the pre-incubation step, or without it, for 10 min at 95° C. in the pre-heating buffer of the following composition: 20 mM Tris-HCl (pH 8.25 at 25° C.), 100 mM KCl, 2 mM MgCl2, 0.5% Tween 20, 0.5% Nonidet P40, and 16% glycerol.
(§1) Aliquots (35 μl) of the enzyme solution were mixed with 2.25 μl aliquots of the N-ethoxycarbonyl-2,3-dimethylmaleinimide solutions described above resulting in the following molar ratios of Taq DNA polymerase to N-ethoxycarbonyl-2,3-dimethylmaleinimide: 1/1280 1/640, 1/320, 1/160, 1/110, 1/80, 1/40. The mixtures were incubated for 20 hours at 4° C. to modify the Taq DNA polymerase. Control samples, in which the enzyme was left unmodified (e.g., the ratio was 1/0), were obtained by mixing the Taq DNA polymerase with a 2.25 μl aliquot of DMF. These control samples were incubated under the same conditions as the modified ones.
The samples of the unmodified Taq DNA polymerase and the modified Taq DNA polymerases were diluted 250-fold in the pre-heating buffer (see Example 2) and activities of the modified enzyme were measured both before heat-reactivation and after it, as described in the Example 2. Activities of both inactivated and heat-reactivated DNA polymerases were determined as described in the Example 2, and the data were normalized to activity of the unmodified Taq DNA polymerase
Aliquots (20.6 μl) of the diluted enzyme solution were mixed with 1 μl of N-isobutoxycarbonyl-2,3-dimethylmaleinimide solutions described above resulting in different molar ratios of Taq DNA polymerase to N-isobutoxycarbonyl-2,3-dimethylmaleinimide (1/320, 1/160, 1/80 and 1/40). The mixtures were incubated 20 hours at 4° C. to modify the Taq DNA polymerase. Control samples, in which the enzyme was left unmodified (e.g., the ratio was 1/0), were obtained by mixing the Taq DNA polymerase with a 1 μl aliquot of DMF. These control samples were incubated under the same conditions as the modified ones. The heat-reactivation of the modified enzymes was performed as described in the Example 3.

Pfu DNA polymerase = molecular target: T1, Pfu DNA polymerase; test: Polymerase activity assay: incorporation of [3H]-dTTP into the polynucleotide adsorbed on DE-81 in 30 min at 50° C. or 72° C.; assay type: biochemical; details: aqueous solution
Method: as §1, with “A set of N-ethoxycarbonyl-2,3-dimethylmaleinimide solutions (72 mM, 18 mM) was prepared by serial dilutions of the 720 mM stock in N,N dimethylformamide (DMF). Aliquots” for “Aliquots”, “(25” for “(35”, “1” for “2.25”, “Pfu” for “Taq”, “1/800, 1/200.” for “1/1280 1/640, 1/320, 1/160, 1/110, 1/80, 1/40.”
The samples of the unmodified Pfu DNA polymerase and the modified Pfu DNA polymerases were diluted in the pre-heating buffer (see Example 2) either 9-fold for measurements at 50° C., or 24-fold for measurements at 72° C. (see Example 2). Activities of the modified enzymes were measured either with the pre-incubation step, or without it, for 10 min at 95° C.
For activity assays, Pfu DNA polymerase was diluted up to 11 u/ml (91 u/ml for measurements at 50° C.) in the dilution buffer (see Example 2). Reactions were carried out either at 50° C., or at 72° C. for 30 min. Aliquots (5 μl) of the diluted enzyme were added to 50 μl of the reaction buffer of the following composition: 20 mM Tris-HCl (pH 8.8 at 25° C.), 10 mM (NH4)2SO4, 10 mM KCl, 2 mM MgCl2, 0.1% Triton X-100, and BSA (0.1 mg/ml) supplemented with, 0.2 mM dNTP, [3H]-dTTP (0.4 MBq/ml) and 0.75 mM activated DNA from calf thymus.

[1] = molar ratio Taq DNA polymerase/N-iso-butoxycarbonyl-2,3-dimethylmaleinimide 1/40
[2] = molar ratio Taq DNA polymerase/N-iso-butoxycarbonyl-2,3-dimethylmaleinimide 1/80
[3] = molar ratio Taq DNA polymerase/N-iso-butoxycarbonyl-2,3-dimethylmaleinimide 1/160
[4] = molar ratio Taq DNA polymerase/N-iso-butoxycarbonyl-2,3-dimethylmaleinimide 1/320
[5] = molar ratio Pfu/N-etoxycarbonyl-2,3-dimethylmaleinimide 1/200
[6] = molar ratio Pfu/N-etoxycarbonyl-2,3-dimethylmaleinimide 1/800

| Molecule | Activity at 70° C. (%) After 10 min. preheating at 95° C. (Taq DNA polymerase; [1]) [%] | Activity at 70° C. (%) Without preheating at 95° C. (Taq DNA polymerase; [1]) [%] | Activity at 70° C. (%) After 10 min. preheating at 95° C. (Taq DNA polymerase; [2]) [%] | Activity at 70° C. (%) Without preheating at 95° C. (Taq DNA polymerase; [2]) [%] | Activity at 70° C. (%) After 10 min. preheating at 95° C. (Taq DNA polymerase; [3]) [%] | Activity at 70° C. (%) Without preheating at 95° C. (Taq DNA polymerase; [3]) [%] | Activity at 70° C. (%) After 10 min. preheating at 95° C. (Taq DNA polymerase; [4]) [%] | Activity at 70° C. (%) Without preheating at 95° C. (Taq DNA polymerase; [4]) [%] | Activity at 50° C. (%) After 10 min. preheating at 95° C. (Pfu DNA polymerase; [5]) [%] | Activity at 50° C. (%) Without preheating at 95° C. (Pfu DNA polymerase; [5]) [%] | Activity at 72° C. (%) After 10 min. preheating at 95° C. (Pfu DNA polymerase; [5]) [%] | Activity at 50° C. (%) After 10 min. preheating at 95° C. (Pfu DNA polymerase; [6]) [%] | Activity at 50° C. (%) Without preheating at 95° C. (Pfu DNA polymerase; [6]) [%] | Activity at 72° C. (%) After 10 min. preheating at 95° C. (Pfu DNA polymerase; [6]) [%] |
| --- | --- | --- | --- | --- | --- | --- | --- | --- | --- | --- | --- | --- | --- | --- |
| Taq DNA polymerase treated with N-iso-butoxycarbonyl-2,3-dimethylmaleinimide: Recombinant Taq DNA polymerase modified with N-isobutoxycarbonyl-2,3-dimethylmaleinimide in aqueous solution, molar ratios 1/40 to 1/320 | ~90 | ~50 | ~100 | ~40 | ~80 | ~30 | ~40 | ~10 |  |  |  |  |  |  |
| Pfu DNA polymerase modified with N-etoxycarbonyl-2,3-dimethylmaleinimide: Native Pfu DNA polymerase reversibly inactivated with N-ethoxycarbonyl-2,3-dimethylmaleinimide, molar ratios 1/200 and 1/800 (protein, UniProt P61875 1-775, looked up, modified with dimethylmaleinimide reagent) DNA polymerase: MILDVDYITEEGKPVIRLFKKENGKFKIEHDRTFRPYIYALLRDDSKIEEVKKITGERHGKIVRIVDVEKVEKKFLGKPITVWKLYLEHPQDVPTIREKVREHPAVVDIFEYDIPFAKRYLIDKGLIPMEGEEELKILAFDIETLYHEGEEFGKGPIIMISYADENEAKVITWKNIDLPYVEVVSSEREMIKRFLRIIREKDPDIIVTYNGDSFDFPYLAKRAEKLGIKLTIGRDGSEPKMQRIGDMTAVEVKGRIHFDLYHVITRTINLPTYTLEAVYEAIFGKPKEKVYADEIAKAWESGENLERVAKYSMEDAKATYELGKEFLPMEIQLSRLVGQPLWDVSRSSTGNLVEWFLLRKAYERNEVAPNKPSEEEYQRRLRESYTGGFVKEPEKGLWENIVYLDFRALYPSIIITHNVSPDTLNLEGCKNYDIAPQVGHKFCKDIPGFIPSLLGHLLEERQKIKTKMKETQDPIEKILLDYRQKAIKLLANSFYGYYGYAKARWYCKECAESVTAWGRKYIELVWKELEEKFGFKVLYIDTDGLYATIPGGESEEIKKKALEFVKYINSKLPGLLELEYEGFYKRGFFVTKKRYAVIDEEGKVITRGLEIVRRDWSEIAKETQARVLETILKHGDVEEAVRIVKEVIQKLANYEIPPEKLAIYEQITRPLHEYKAIGPHVAVAKKLAAKGVKIKPGMVIGYIVLRGDGPISNRAILAEEYDPKKHKYDAEYYIENQVLPAVLRILEGFGYRKEDLRYQKTRQVGLTSWLNIKKS |  |  |  |  |  |  |  |  | ~100 | ~20 | ~100 | ~100 | ~0 | ~90 |
